The target in this assay is T1, SARS-CoV-2 RBD protein (recombinant, WT) (SARS-CoV-2 wild type (Wuhan-Hu-1 …, UniProt P0DTC2)).
T1 construct: also called WT RBD
The assay can be described thus: SPR. The note with it: both partners purified.

B1: S2E12 (antibody, V domains shown)
VH: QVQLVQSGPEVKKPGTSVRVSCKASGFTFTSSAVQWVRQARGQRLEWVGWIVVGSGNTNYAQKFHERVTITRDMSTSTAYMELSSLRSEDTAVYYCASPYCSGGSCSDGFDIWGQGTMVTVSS
VL: DIVLTQTPGTLSLSPGERATLSCRASQSVSSSYLAWYQQKPGQAPRLLIYGASSRATGIPDRFSGSGSGTDFTLTISRLEPEDFAVYYCQQYVGLTGWTFGQGTKVEIK
notes: source: generated by the authors
Consider B1, for which the binding result is recorded as “binds”.

B2: ZCB11 (human IgG1 monoclonal antibody) (antibody, V domains shown)
VH: EVQLVQSGPEVKKPGTSVKVACKASGFTFITPVSMQWVRQARGQRLEWLGWIVLASGNTDYAQKFQERVTIIRDMSTSTAYMELSRLRTEDTAVYYCAAPSCSRTICSDGFDIWGQGTMVTVSS
VL: EIVLTQSPGTLSLSPGERATLSCRASQSVSSSYLAWFQQKPGQAPRLLIFAASSRAIGIPARFSGSGSGTDFTLTISRLEPEDFAVYYCQQYSSSPWTFGQGTKVEIK
notes: also called bNAb ZCB11
Regarding B2, the Kd amounted to 57.5 pM.

The record behind these values is article PMC9223271 (Nature Communications, 2022).
